Here are results for 16 molecules from US20070081991A1, “Compositions and methods for modulation of immune responses” (Pepgen Corporation, priority 2001, published 2007).

For assay [1] the following is noted: mice; cited from earlier work.
The target of assay [2] is T1, Qa-1^b (Mus musculus, UniProt P06339).
T1 sequence (P06339 21-357): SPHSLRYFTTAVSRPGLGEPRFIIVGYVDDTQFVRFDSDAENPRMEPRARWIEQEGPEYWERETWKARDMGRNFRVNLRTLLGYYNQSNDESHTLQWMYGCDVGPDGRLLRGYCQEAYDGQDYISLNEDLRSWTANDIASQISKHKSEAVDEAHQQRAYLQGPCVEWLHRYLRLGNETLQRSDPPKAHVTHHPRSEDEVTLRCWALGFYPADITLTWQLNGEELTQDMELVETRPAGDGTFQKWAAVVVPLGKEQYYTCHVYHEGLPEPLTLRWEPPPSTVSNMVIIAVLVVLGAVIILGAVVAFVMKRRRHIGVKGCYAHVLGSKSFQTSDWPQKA
T1 sequence (P01887 21-119 partner): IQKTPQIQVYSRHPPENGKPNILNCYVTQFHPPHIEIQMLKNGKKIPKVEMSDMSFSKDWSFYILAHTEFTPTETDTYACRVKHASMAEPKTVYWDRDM
As to conditions: cited from earlier work.

Assay [3] deals with T2, HLA-E (Homo sapiens, UniProt P13747).
T2 construct: HLA-E*0101 and HLA-E*01033 cDNA encoding plasmids (pcDNA3) were provided by Drs; M. Ullbrecht and E. Weiss; expressed in transfected cells; host or cells: K562
Description: Peptide competition with B7sp in cytotoxic assay on K562-E*01033 cells. Type of assay: cell-based. As to conditions: 0.1 μM B7sp together with increasing concentrations of competing peptide; effector Nishi. The procedure:
(§1) K562-E*01033 cells were incubated with the different peptides at 26° C. for 15-20 hours, and then tested in 2 h 51Cr release assays. In order to ensure that the levels of HLA-E with a protective peptide, and not the HLA-E levels as such, provided the protective capacity we kept the non-protective peptides, but omitted the B7sp, during the assays. (a) Killing of K562-E*01033 cells by NKL (left) or Nishi (right) after incubation with […], 300 mM hsp60sp, or 30 mM B7sp. 50 mM of P18I10 control peptide and hsp60sp was also included during the assays. Data from an E:T ratio of 30:1 is shown. The figure represents the mean of at least three experiments. Error bars indicate standard error of the mean. (b) Killing of K562-E*01033 cells by NKL (left panel) or Nishi (right panel) incubated over night with 30 mM 7sp, 300 mM P18I10 (pCtrl), 300 mM B7 R5V, 300 mM hsp60sp, or 300 mM hsp60 V5R. 50 mM of all peptides, except B7sp, were included during the assay. Peptide concentrations were chosen according to FIG. 5c. The figure represents the mean of at least three experiments. Error bars indicate standard error of the mean. (c) HLA-E cell surface expression by K562-E*01033 after the assay. A cold target preparation was prepared in parallel as in (a) and (b), and then stained with DX17 mAb (anti-HLA class I), followed by RPE-conjugated goat-anti-mouse IgG. One representative example out of more than 5 is shown. Note that, as in (a) and (b), 50 mM of all peptides, except for B7sp, was present during the time of the assay, explaining the lower HLA-E expression with B7sp compared to Hsp60sp, Hsp60 V5R and B7 R5V. (d) Killing of K562-E*01033 cells by Nishi after incubation for 30 min at room temperature with 0.1 mM B7sp and increasing amounts of competing peptides (hsp60sp, hsp60.4, B7 R5V and P18I10). All the peptides were kept throughout the assay
Briefly, K562-E*01033 cells were incubated with 0.1 μM B7sp together with increasing concentrations of competing peptides and tested in cytotoxic assays.

For assay [4], the system named is HLA-E. Description: HLA-E stabilization assay (cell surface expression by flow cytometry). The class given is cell-based, human. As to conditions: overnight incubation with peptide at 26° C. The procedure: Synthetic peptides, purchased from Research Genetics, were dissolved in PBS. The peptides used were B7sp ([…]) (SEC ID NO: 3), hsp60sp ([…]) (SEC ID NO: 2), B7 R5V ([…]) (SEC ID NO: 14), hsp60 V5R ([…]) ([…]), and P18I10 ([…]) (SEC ID NO: 113) (all from Research Genetics, Huntsville, Ala.). Cells and their HLA-E transfected derivatives were incubated with synthetic peptides (3-300 μM) at 26° C. for 15-20 hours in serum-free AIM-V medium (GibcoBRL, Paisley Scotland) at a concentration of 1-3.10^6 cells/ml. Cells were then harvested, washed in PBS, stained with mAbs and analyzed by flow cytometry. Cells were subjected to stress by allowing them to grow at increasing cell density.
To test whether the hsp60-derived peptides were able to bind HLA-E, stabilized HLA-E cell surface expression was stabilized with the different synthetic peptides, by overnight incubation at 26° C. For this purpose MHC class I-deficient cell lines such as 721.221 (which lack HLA-A, -B, -C, and -G, but express HLA-E and -F intracellularly), as well as K562 cells transfected with HLA-E*01033 (K562-E*01033) or HLA-E*0101 were employed. The 721.221 cells and HLA-E transfected, but not untransfected, K562 cells express low levels of HLA-E at the cell surface during normal cell growth.
For orientation: A flow cytometer gives signals particle by particle.

Assay [5] relates to CD94/NKG2A+ NK cells. Particulars: peptide presented by Qa-1^b; cited from earlier work.
For assay [6], the system named is CD94/NKG2A+ NK cell lines Nishi and NKL. Description: NK cell-mediated cytotoxicity, 2 h 51Cr release, peptide-loaded K562-E*01033 targets. Particulars: targets incubated overnight at 26° C. with peptide; effectors NKL and Nishi. The class given is cell-based, human. How it is done:
as §1
NK cell-mediated cytotoxicity was measured using a 2 hours standard ^51Cr radioisotope release assay. Briefly, target cells were incubated for 15-20 hours at 26° C. with the various peptides at concentrations ranging from 1-300 μM, and then labeled with ^51Cr. Peptides were washed away prior to setting up the assays, except in some experiments where the non-protective hsp60sp, B7 R5V and hsp60 V5R was kept throughout the assay to assure higher levels of HLA-E expression, as compared to targets incubated with the protective B7sp. In mAb blocking experiments, cells were preincubated with mouse serum, or an irrelevant isotype matched antibody to block Fc-receptors. Blocking of either target or effector cells with mAbs was performed at 4° C., and the antibodies were also included during the assays. […]

Assay [7] deals with HLA-E. Description: HLA-E stabilization assay (cell surface expression by flow cytometry). Type of assay: cell-based, human. Particulars: at 37° C.
Assay [8] deals with T3, HLA-E on cells, allele not told (human, UniProt P13747 22-358; P61769 21-119).
T3 construct: whole, on cells
Description: HLA-E surface stabilisation with synthetic peptide overnight at 26 C, flow cytometry. The procedure:
(§2) Synthetic peptides, purchased from Research Genetics, were dissolved in PBS. […] Cells and their HLA-E transfected derivatives were incubated with synthetic peptides (3-300 μM) at 26° C. for 15-20 hours in serum-free AIM-V medium (GibcoBRL, Paisley Scotland) at a concentration of 1-3.10⁶ cells/ml. Cells were then harvested, washed in PBS, stained with mAbs and analyzed by flow cytometry. Cells were subjected to stress by allowing them to grow at increasing cell density.

The target of assay [9] is T3, HLA-E on cells, allele not told. Description: summary of the examples.
In assay [10] the target is T4, HLA-E*01033 on transfected K562 cells (K562-E*01033) (human).
T4 construct: whole, on cells; MHC class I molecule that takes up added peptide in the 26 C stabilisation assay
Description: HLA-E surface stabilisation on transfected K562 cells, synthetic peptide overnight at 26 C, flow cytometry. The procedure: as §2

For assay [11], the target named is T4, HLA-E*01033 on transfected K562 cells …. Description: HLA-E surface expression on K562-E*01033 cells after the cytotoxic assay, DX17 staining, flow cytometry.
For assay [12] the target is unchanged. Description: HLA-E surface stabilisation on K562-E*01033 cells, DX17 staining, flow cytometry. The procedure:
as §2

Assay [13] concerns the target T3, HLA-E on cells, allele not told. Description: HLA-E surface stabilisation on transfected K562 and 721.221 cells, flow cytometry. The procedure: as §2
Setting [14] is: K562 cells transfected with HLA-E*01033 or HLA-E*0101.

“Also recorded” adds a separate entry of the source. Marks after values point to notes of the source that are not given here.

On to `CN(C(=O)c1c(O)c2ccccc2n(C)c1=O)c1ccccc1` [linomide], for which the “protection from developing EAE” value in assay [1] is “can protect mice from developing disease”.
Turning to AMAPRTLLL [qdm, reference compound], the “binding to Qa-1^b” value in assay [2] is recorded as “known to form relatively stable Qa-1b/peptide complex”.
For “GMKFDRGYI [hsp60.4, human hsp60 residues 216-224]”, the “competition with B7sp (loss of HLA-E mediated protection from killing)” value in assay [3] was “not able to compete with B7sp; also recorded: could not compete with the B7sp for binding to HLA-E”. Moreover, in [2], the “binding to Qa-1^b” value is on record as “bind to mouse Qa-1^b molecules; also recorded: could bind to Qa-1^b; also recorded: binds to Qa-1^b”. Further, the “competition with Qdm-peptide for binding to Qa-1^b” value in assay [2] (even when mixed in 100,000-fold excess with 1 mM Qdm) was “failed to compete with the protective Qdm-peptide for binding to Qa-1^b; also recorded: nor could it reportedly compete for binding to Qa-1^b”. In addition, the “HLA-E cell surface expression (stabilization)” value (“HLA-E cell surface expression” for short) is “capable of stabilizing HLA-E molecules” in [4] (721.221 cells) and “capable of stabilizing HLA-E molecules; also recorded: can bind to HLA-E” in assay [4] (setting [14]). For the same molecule, in assay [5], the “protection from CD94/NKG2A+ NK cells” value is “did not induce protection from CD94/NKG2A^+ NK cells; also recorded: fail to protect the cells from NK cell mediated lysis”.
On to “L MLQGVDLL (N-terminal Leu) [hsp60.2, human hsp60 residues 39-47]”, for which the “HLA-E cell surface expression” value in assay [4] (setting [14]) was “HLA-E stabilization was not observed”.
On to “QMRPRSRVL [hsp60 V5R, hsp60sp with valine to arginine at position 5]”, for which, in assay [6], the “protection of K562-E*01033 cells from killing by NK cells” value (“protection of K562-E*01033 cells” below) is recorded as “not sufficient to restore protection from killing”.
Turning to QMRPVSRVL [hsp60sp], in [3], the “competition with B7sp (loss of HLA-E mediated protection from killing)” value is reported as “could interfere with HLA-E mediated protection by competing with MHC class I signal peptides; also recorded: became more susceptible to killing with increasing concentrations of hsp60sp”. The “HLA-E cell surface expression” value in assay [4] (setting [14]) is “substantial increase in HLA-E expression; also recorded: stabilization of HLA-E”. For the same molecule, in assay [7], the “dissociation of HLA-E/peptide complexes” value is “dissociated faster than the HLA-E/B7sp”. Moreover, the “protection of K562-E*01033 cells” value in assay [6] is reported as “did not result in any significant protection; also recorded: fails to protect K562-E*01033 cells from killing by NK cells”.
On to RGPGRAFVTI [P18I10, reference compound], for which, in assay [3], the “competition with B7sp (loss of HLA-E mediated protection from killing)” value is listed as “remained protected from killing at all concentrations tested”.
In the case of “VMAPVTVLL [B7 R5V, B7sp with arginine to valine at position 5]”, in assay [3], the “competition with B7sp (loss of HLA-E mediated protection from killing)” value is on record as “even stronger competitor than hsp60sp”. The “HLA-E cell surface expression” value in assay [4] (setting [14]) is on record as “expressed high levels of HLA-E”. Besides, in [6], the “protection of K562-E*01033 cells” value was “efficiently killed by CD94/NKG2A^+ NK cells”.
In the case of “VMLAVDAVI [hsp60.3, human hsp60 residues 144-152]”, the “HLA-E cell surface expression” value in assay [4] (setting [14]) was “HLA-E stabilization was not observed”.
Consider VMLAVDAVI [hsp60.3 peptide (VMLAVDAVI)], for which, in assay [8], the binding result is listed as “no binding”.

B1: hsp60sp (QMRPVSRVL), nonamer from the signal sequence of human hsp60 (peptide)
peptide: QMRPVSRVL
notes: Synthetic peptide (Research Genetics); also called hsp60 signal peptide; hsp60 leader peptide
For the molecule B1, the binding result in [9] and in [10] was “binds” each time.
Turning to QMRPRSRVL [hsp60 V5R (QMRPRSRVL)], in assay [11], the binding result was “binds”.
For the molecule LMLQGVDLL [hsp60.2 peptide (LMLQGVDLL)], the binding result in assay [8] is recorded as “no binding”.
As to VMAPRTVLL (also called B7 signal peptide) [B7sp (VMAPRTVLL), peptide from the leader sequence of HLA-B*0701], the binding result in assay [10] is listed as “binds”.
As to VMAPVTVLL [B7 R5V (VMAPVTVLL)], the binding result in assay [12] is listed as “binds”.
Regarding GMKFDRGYI [hsp60.4 peptide (GMKFDRGYI)], the binding result in assay [13] is “binds”.
